Results on four molecules are retold here after patent publication US20220002412A1 (SINOCELLTECH, published 2022).

Experiment [1] addresses T1, recombinant mouse PD-1 protein (mouse, UniProt Q02242 25-167, limits assumed, biotinylated in the Octet assay).
T1 construct: Bought protein; also called murine PD-1; biotinylated mouse PD-1 protein
T1 sequence (looked up): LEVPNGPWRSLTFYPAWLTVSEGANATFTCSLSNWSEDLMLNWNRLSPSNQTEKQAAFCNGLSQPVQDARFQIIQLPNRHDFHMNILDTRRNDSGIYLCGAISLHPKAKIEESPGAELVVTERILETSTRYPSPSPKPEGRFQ
Put plainly: Octet biolayer interferometry on biotinylated mouse PD-1 protein. A general note: Biolayer interferometry detects binding as a change in optical thickness at a sensor tip.

The target of experiment [2] is T2, recombinant monkey PD-1 protein (monkey, UniProt B0LAJ3 25-170, Biotinylated in the Octet assay; the site of biotinylation is not stated.).
T2 construct: Bought protein; also called biotinylated monkey PD-1 protein
T2 sequence (B0LAJ3 entry or part of it limits assumed): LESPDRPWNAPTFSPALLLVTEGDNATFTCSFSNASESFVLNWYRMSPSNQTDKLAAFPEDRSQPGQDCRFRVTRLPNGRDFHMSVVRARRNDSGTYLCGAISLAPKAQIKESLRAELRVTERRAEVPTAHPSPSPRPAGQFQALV
Put plainly: Octet (BLI), biotinylated monkey PD-1.

In experiment [3] the target is T2, recombinant monkey PD-1 protein. In words: indirect ELISA, coated antigen titrated (antigenic EC50), antibody at 2 µg/mL.
For experiment [4], the target named is T3, recombinant CD16a-AVI-His (V158)+BirA protein (UniProt P08637 17-208, +BirA (AVI tag, detected with streptavidin/HRP)).
T3 construct: Bought from Sino Biological; It is the V158 allotype as printed; also called recombinant CD16a (V158) protein; recombinant CD16a protein
T3 sequence (P08637 17-208 F176V limits assumed): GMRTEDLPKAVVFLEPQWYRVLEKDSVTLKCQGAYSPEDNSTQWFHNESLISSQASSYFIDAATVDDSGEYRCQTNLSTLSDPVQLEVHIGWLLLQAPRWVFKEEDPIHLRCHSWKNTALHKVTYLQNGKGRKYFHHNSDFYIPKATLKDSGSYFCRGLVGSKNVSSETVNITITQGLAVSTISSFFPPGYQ
In words: ELISA: antibody titrated on coated recombinant human PD-1, then recombinant CD16a-AVI-His (V158)+BirA with streptavidin/HRP. (An ELISA detects its analyte on a solid surface through an enzyme-linked reagent.)

The target of experiment [5] is T4, biotinylated FCGRT-His+B2M protein (human, UniProt P55899 24-297; P61769 21-119, biotinylated).
T4 construct: Bought from Sino Biological; also called recombinant human FcRn protein; human FcRn protein
T4 sequence (P55899 24-297 limits assumed, chain 1 of 2): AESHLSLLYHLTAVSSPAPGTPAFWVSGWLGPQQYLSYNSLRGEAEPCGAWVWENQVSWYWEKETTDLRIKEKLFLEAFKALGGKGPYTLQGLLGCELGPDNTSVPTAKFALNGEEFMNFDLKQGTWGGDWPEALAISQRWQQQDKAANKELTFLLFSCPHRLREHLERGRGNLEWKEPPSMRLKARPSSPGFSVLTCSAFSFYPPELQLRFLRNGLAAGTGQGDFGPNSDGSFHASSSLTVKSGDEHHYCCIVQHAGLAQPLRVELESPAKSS
T4 sequence (P61769 21-119 limits assumed, chain 2 of 2): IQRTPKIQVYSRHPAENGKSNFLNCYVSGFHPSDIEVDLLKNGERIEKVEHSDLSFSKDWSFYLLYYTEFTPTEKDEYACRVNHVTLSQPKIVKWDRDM
In words: ELISA at pH 6.0, biotinylated FCGRT-His+B2M captured on avidin, antibody at 270 µg/mL.

Experiment [6] has as its target T5, recombinant human PD-1 protein (Sino Biological, Inc, Cat. 10377-H08H) (human, UniProt Q15116 25-167). In words: competition ELISA: coated recombinant human PD-1, blocked ligand PD-L1-Fc-biotin, antibody at three concentrations.
The target of experiment [7] is T5, recombinant human PD-1 protein (Sino …). Put plainly: monoclonal phage ELISA on recombinant human PD-1 protein.
For experiment [8], the target named is T2, recombinant monkey PD-1 protein. Put plainly: indirect ELISA, coated antigen titrated, antibody at 2 µg/mL.

T5 sequence (Q15116 25-167 limits assumed): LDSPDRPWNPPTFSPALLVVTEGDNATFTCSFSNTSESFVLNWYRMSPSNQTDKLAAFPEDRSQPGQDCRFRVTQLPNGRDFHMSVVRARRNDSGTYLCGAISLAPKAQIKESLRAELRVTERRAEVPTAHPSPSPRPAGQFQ

B1: humanized antibody PD1-H944 (antibody, human IgG4 S228P, kappa)
heavy: not shown
light: EIVLTQSPATLSLSPGERATLSCRASESVDSYGNSFMHWYQQKPGQPPRLLIYAASNQGSGVPARFSGSGSGTDFTLTISSLEPEDFAMYFCQQSKEVPWTFGQGTKVEIKRTVAAPSVFIFPPSDEQLKSGTASVVCLLNNFYPREAKVQWKVDNALQSGNSQESVTEQDSKDSTYSLSSTLTLSKADYEKHKVYACEVTHQGLSSPVTKSFNRGEC
As for B1, the figures for the binding result in experiment [1] and in experiment [4] were “no binding (tested: 13.30 nM)” and “no binding (tested: 80 µg/mL)”, respectively. Further, the Kd in experiment [2] was 0.108 nM. For the same molecule, the EC50 in experiment [3] stood at 0.0327 µg/mL. The “binding relative to Nivolumab at 270 µg/mL” value in experiment [5] is roughly 1.62 times.

B2: murine antibody PD1-M944 (antibody, mouse IgG1, V domains shown)
VH: EVQLVESGGGLVKPGGSLKLSCAASGFTFSSYGMSWVRQTPEKRLEWVATISGGGRDTYYSDSVKGRFTVSRDNAKNNLFLQMSSLRSEDTALYYCSRQYGTVWFFNWGQGTLVTVSA
VL: not shown
notes: Full antibody with mouse IgG1 heavy chain constant region and mouse kappa light chain constant region; Expressed in HEK-293 cells
Turning to B2, the binding result in experiment [6] is “binds”.

B3: M944 scFv antibody (scFv)
scFv: DIVLTQSPASLAVSLGQRATISCRASESVDSYGNSFMHWYQQKPGQPPKLLIYAASNQGSGVPARFSGSGSGTDFSLNIHPMEEDDTAMYFCQQSKEVPWTFGGGTKLEIKSSGGGGSGGGGGGSSRSSEVQLVESGGGLVKPGGSLKLSCAASGFTFSSYGMSWVRQTPEKRLEWVATISGGGRDTYYSDSVKGRFTVSRDNAKNNLFLQMSSLRSEDTALYYCSRQYGTVWFFNWGQGTLVTVSA
notes: Tested as a monoclonal phage clone (pComb3x phage display); Any phage fusion partner is not described; also called PD1-M944 scFv
Consider B3, for which the binding result in experiment [7] was “binds”.

B4: Nivolumab (antibody, V domains shown)
VH: QVQLVESGGGVVQPGRSLRLDCKASGITFSNSGMHWVRQAPGKGLEWVAVIWYDGSKRYYADSVKGRFTISRDNSKNTLFLQMNSLRAEDTAVYYCATNDDYWGQGTLVTVSS
VL: EIVLTQSPATLSLSPGERATLSCRASQSVSSYLAWYQQKPGQAPRLLIYDASNRATGIPARFSGSGSGTDFTLTISSLEPEDFAVYYCQQSSNWPRTFGQGTKVEIK
With B4, the Kd in experiment [2] came to 0.131 nM. In addition, in experiment [8], the EC50 worked out at 0.0802 µg/mL.

What is called Kd is a measure of binding affinity in units of concentration. In general, EC50 refers to the concentration needed to bring the measured effect to its halfway point.
